Consider 2 molecules from article PMC11506546, “Tropomyosin Isoforms Segregate into Distinct Clusters on Single Actin Filaments” (Biomolecules, 2024).

Settings in all cases: both partners purified
The target of experiment [1] is rabbit skeletal-muscle F-actin (rabbit, UniProt P68135 1-377). Nature of the experiment: co-sedimentation; 0.2-3.5 µM tropomyosin with 3 µM F-actin in T buffer (150 mM NaCl, 10 mM Tris-HCl pH 7.5, 2 mM MgCl2), 50 µL, 1 h at room temperature; 670,000 x g, 20 °C, 30 min; SDS-PAGE densitometry; Hill equation fit; apparent Kd.
The target in experiment [2] is α-actin filament (muscle actin, polymerized from G-actin) (UniProt P68135 1-377). Description: TIRF microscopy of tropomyosin-decorated single actin filaments; control experiments: the same Tpm isoform labeled with AF488 and with AF568 (0.015 µM of each) mixed with 1 µM G-actin in D buffer, polymerized with 50 mM NaCl for 5-10 min, 10% PEG 300; decorated filaments captured on PLL-PEG/BSA coverslips in microfluidic channels, washed with TIR50 buffer.

In experiment [3] the target is β-actin filament (cytoskeletal actin, polymerized from G-actin) (UniProt P60709 1-375). Described as above.

B1: Tpm1.6 AF488 (Tpm1.6 labeled at Cys-190 with Alexa Fluor 488 C5 maleimide) (natural protein)
chain: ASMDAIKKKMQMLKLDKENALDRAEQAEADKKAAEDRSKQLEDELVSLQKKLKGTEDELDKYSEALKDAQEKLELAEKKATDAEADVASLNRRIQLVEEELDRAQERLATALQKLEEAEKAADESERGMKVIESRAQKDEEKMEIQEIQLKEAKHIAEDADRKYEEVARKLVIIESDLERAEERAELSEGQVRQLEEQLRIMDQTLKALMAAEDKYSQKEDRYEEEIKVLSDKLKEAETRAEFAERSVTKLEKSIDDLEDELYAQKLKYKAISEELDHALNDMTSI
modifications: Alexa Fluor 488 C5 maleimide on Cys-190 (monomer labeling ratio approximately 95%)
For the molecule B1, the Kd in experiment [1] amounted to 1210 nM.

B2: Tpm1.6 AF568 (Tpm1.6 labeled at Cys-190 with Alexa Fluor 568 C5 maleimide) (natural protein)
chain: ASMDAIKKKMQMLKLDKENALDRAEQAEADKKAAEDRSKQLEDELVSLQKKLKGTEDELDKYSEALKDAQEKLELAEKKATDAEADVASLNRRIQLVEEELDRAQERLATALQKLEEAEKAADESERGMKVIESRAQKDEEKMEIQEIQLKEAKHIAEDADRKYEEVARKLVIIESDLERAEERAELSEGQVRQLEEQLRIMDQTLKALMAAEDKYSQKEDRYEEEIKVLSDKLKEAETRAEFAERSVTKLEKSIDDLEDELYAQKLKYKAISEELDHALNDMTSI
modifications: Alexa Fluor 568 C5 maleimide on Cys-190 (monomer labeling ratio approximately 95%)
Take B2: the Kd in experiment [1] turned out to be 2370 nM. In addition, the “ratio of Tpm in Ch1 (red, AF568)/Ch2 (green, AF488) on the filament, median” value in experiment [2] and in experiment [3] was 0.7 each time.
